Test: yeast display, Sf9 membrane polyspecificity reagent, FACS + sequencing; frameworks hold sequencing errors
In short: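 Galactose induction of a Saccharomyces cerevisiae BJ5465 synthetic nanobody display library ran 36–48 hours. The cells were then stained for 1 hour at 4 °C with 10% biotinylated, detergent-solubilized Sf9 membrane reagent, pulled down on streptavidin microbeads and FACS-sorted into low and high (top ~1%) gates on expression and reagent-binding fluorescence. Labels for polyreactivity follow the gate of origin.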

Sequence | polyreactivity (PSR sort gate)
QVQLVESGGGLVQAGGSLRLSCAASGSTFQSNAMGWYRQAPGKERELVATITQSGATTYYADSVKGRFTISRDNAKNTVYLQMNSLKPEDTAVYYCNVDTYQKRWFWLDLDGGYWGQGTQVTVSS | low polyreactivity
QVQLVESAGGLVQAGGSLRLSCAASGRTFKYYAMGWYRQAPGKERELVAAITSTGGSTYYADSVKGRFTISRDNEKNTVYLQMNSLKPEDTAVYYCNRYTQYRDRSDNHWGQGTHVTVSS | high polyreactivity
QVQLVESGGGLVQAGGTLRLSCAASGRTFPLYAMGWYRQAPGKERELVAAISSSGGNTYYADSVKGRFTISRDNAKNTVYLQMNSLKPEDTAVYYCNADVSTNSDRLQLDYWGQGTQVTVSS | low polyreactivity
QVQLVESGGGLVQAGGSLRLSCAASGIFFLYGMGWYIQAPGKQRELVAVISTRDTTDYADSVKGRFTISRDKSKNTVNIQMNSLKPEDTAVYFCAATARSRSYSWSKLNYWGQGTQVTLSS | low polyreactivity
QVQLVESGGGLVQAGGSLRLSSAASGSTFRYYVMGRYRQAAGKERELVAGISSRGGTTYYADSVKGRFTISRDNAKNTVYLQMNSLKPEDSAVYYCNADTAAAQASYDRLYVLLDYWGQGTQVTVSS | low polyreactivity
HVQIVESGRGLVPAGGSLRLSCAASGFIFIRYSMGWSRQAPGKERELVAVISSGGGSTDYADSVKGRFTISRDYAKNTVFLQMISLKPEDTAVYYCAADFLPTYDPYYFWGQGTQVSVSS | low polyreactivity
QVQLVESGGGLVQAGGSLRLSCAASGGIFIFYAMGWYRQATGKERELVAASSNVSSTNYADSVKGRFTISRDNAKNTVYLQMNSLKPEDTAVYYCAAYYYYFYHKVIWYELDYWGQGTQVTVSS | low polyreactivity
QVQLVESGGGLDQAGGSLRLSCAASGFTFVDYDIGWYRQATGKERELVAAITYSGGSTSYADSVKGRFTISRDNSKTTFYLQMNSLKPEDTAVYYCAGEPVGEIMDYWGQGTQVTVSS | low polyreactivity
QVQLVESGGGLDQAGGSLRLSCAASGSIFTVNAMGWYRQAPGKERELVAAIDGSSGSTNYADSVKGRFTISRDNAKNTVYLQMNSLKPEDTAVYFCAADWSYEYGYWGQGTQVTVSS | low polyreactivity
QVQLVESGGGLVQAGGSLRLSCAASGSTFPFYAMGWYRQAPGKERELVAAITSGGSTYADSVKGRFTISRDNAKNTVYLQMNSLKPEDTAVYYCAASWPRWCRFGYWGQGTQVTVSS | low polyreactivity
QVQHVESGVGLVQAGGSLRLSCAASGRIFRWNAMGWYRQAPGKERELVAAISWNGGRTYYADSVKGRFTISRDNAKNTVYLQMNSLKPEDTAVYYCAAPHCVPDLHSGDYWGLGTQVTVSS | low polyreactivity
QVQHVESGGGLVQAGGSLRLSCAASGLTFANYVMGWYRQAPGKERELVASISISGGSTYYADSVKGRFTISRDNAKNTVYLQMNSLKPEDTAVYYCAASFVSSYQYDYWGQGTQVTVSS | high polyreactivity
QVQLVESGVGLVQAGGSLRLSCAASGSIINFYAMGLYRQAPGKERELVAAINYNDINTYYADSVKGRFTISRDNAKNTVYLQMNSLKPEDTAVYYCNAELNVQYLYGYTGEYDYWGQGTQVTVSS | low polyreactivity
QVQLVESGGGLVQAGGSLRLSCAASGSTFYRNAMGWYRQAPGKERELVAAISSTGGSTYYADSVKGRFTISRDNAKNTVYLQMNSLKAEDTAVYYCAVDPGLTKGFGYWGQGTHVTVSS | low polyreactivity
QVQLVESGGGLVQAGGSLRLSCAASGFTFTRNAMGWYRQAPGKERELVAAISKSGGRTYYADSVKGRFTISRDNAKNTVYLKMNSLKPEDSAVYYCAVVPRPFGLGSDYDYWGQGTQVTVSS | high polyreactivity
QVQLVESGGGLVQAGGSLRLSCAASGFIFFTNAMGWYRQAPGKERELVAAITDDGSTYYADSVKGRFTISRDNAKNTVYLQMNSLKPEDTAVYYCNVVLQDPSYSWFWYDYDYWGQGTQVTVSS | high polyreactivity

Sequence | polyreactivity (PSR sort gate)
QVQLVESGGGLVQAGGSIRLSCAASGFTFTRYTMGWYRQAPGKERELVARITRSGGSTYYADSVKGRFTISRDNAKNTVYLQMNSLKPEDTAVYDCAAGYVVATRYDYWGQGTQVTLSS | high polyreactivity
QVQLVESGRGLVQAGGSLRLICAASGSIFFYYAMGWYRQAPGKERELVAVITSGGSTNYADSVKGRFTISRDNAKNTVYLQMNSLKPEDTAVYYCNADGYGYFTVREFLDYDYWGQGTQVTVSS | low polyreactivity
QVQLVESGGGLVQAGGSLRLSCAASGFTLTRNAMGCYRQAPGKERELVAAISWSGGTTYYADSVKGRFTISRDNAKNTVYLQMNSLKPEDTAVYYCNTASWRAQYYYWGQGTQVTVSS | high polyreactivity
QVQLVESGGGLVQAGGSLRLSCAASGRIFIYKAMGWYRQAPGKERELVAAISSSGTSTYYADSVKGRFTISRDNAKNTVYLQKNSLKPEDTAVYYCNAVYNYRWYSQGYYWGQGTQVTVSS | high polyreactivity
QVQLVESGGGLVQAGRSLRISRAASGSIFYKNVMGWYRQAPGKERELVAAITSGGSTYYADSVKGRFTISRDNAKNTVYFQMNSVYPEYSAVYYWAAGFGRNPVSRYYWGQGTQVTVSS | high polyreactivity
QVQLVESGGGLVQAGGSLRLSCAASGFTFRGNAMGWYRQAPGKERELVAAISYIGGTTYYADSVKGRFTISRDNAKNTVYLQMNSLKPEDTAVYYCAADLYRSILKPDYDYWGQGTQVTVSS | high polyreactivity
QVQIVESGGGLFQAGGSLRISCAPSGRTLRYNTMGWYRQAPGKERELVAAISIRGGSTYYADSVKGRFTISRDNAKNTVYLQMNSLKPEDTAVSYCNARFTYRWGMGYWGQGTQVTVSS | high polyreactivity
QVQLVESGGGLVQAGRSLRLSCAASGLTFVNYTMGCYRQAPGKEREFVAAITSSGGSSTYYADSVKGRFTHSRDNAKNTVYLQMNSLYPEDTAVYYCAAGFTLYVDIVILTVNTVDYWGQGTQVTVSS | low polyreactivity
QVQLVESGGGLVQAGGSLRLSCAASGGTFSYNAMGWYRQAPGKERELVAAISWSGTRTYYADSVKGRFTISRDNAKNTVYLQMNSLKPEDTAVYYCNKTPPNRGRYDYCGQGTQVTVSS | low polyreactivity
QVQLVESGGGLVQAGGSLRLSCAASGNIFPDYAMGWYRQAPGKERELVAAISSSGSSTYYADSVKGRFTISRDNAKNTVYLQMNSLKKEDTAVYYCATRVYLPTFYIRDTQYYYWGQGTQVTVSS | low polyreactivity
QVQLVESGGGLVQAGGRLRLSSAASGRIFASNAMGWYRQAPGKERELVARIDSGGITNYADSVKGRFTISRDNAKNTVYFQMNSLKPEDTGVYYCAKSVGWWSPPLGVYWVQGTQVTVSS | low polyreactivity
QVQLVESGGGLVQAGGSLRLSCAASGRTFYGYAMGWYRQAPGKERELVAAISSNNGRTYYADSVKGRFTISRDNAKNTVYLQMNSLKPEDTAVYYCAAEAVSILWRDYDYWGQGTQVTVSS | low polyreactivity
QVQLVESGGGLVQAGGSLRLSCAASGRTFDFYAKGWYRQAPGKERELVAAITFSTGSTTYADSVKGRFTISRDNAKNTVYLQMNSLKPEDTAVYYCAADGDGWWWSYVDRYDYWGQGTQVTVSS | low polyreactivity
QVQLVESGGGLVQAGGSLRLSCAASGRTFCTNAMGWYRQAPGTERELVAVISGSTGSTYYADSVKGRFTISRDNAKNTVYLQMNSLKPEDTAVYYCAASYRNTGRWSYRGDYWGQGTQVTVSS | high polyreactivity
QVQLVESGGGLVQAGGSLRLSCAASGRIFKRYTLGWYRPAPAKERELVAAITKRADRTNYADSVKGRFTISRDNAKNTVYLQMNSLKPEDTAVYDCNAEGQNDHPSNGYISYKYDYWGQGTQVTVSS | low polyreactivity

— the nanobody polyreactivity screen of Harvey et al. (2022)
